In US20020141999A1 (IMMUNEX, published 2002):
Each block holds one binder with its values, some of them ahead of it.

Tests used:
[1] = molecular target: T1, murine CD7, full length, on cells (mouse, UniProt P50283 24-210); experiment: HuK12-Fc on transfected COS-1 cells, 125I anti-human Fc, phosphorimager
T1 construct: On transfected COS-1 cells; For the proliferation read-out it is endogenous on BALB/c lymph node cells; also called MuCD7; mouse CD7
T1 chain: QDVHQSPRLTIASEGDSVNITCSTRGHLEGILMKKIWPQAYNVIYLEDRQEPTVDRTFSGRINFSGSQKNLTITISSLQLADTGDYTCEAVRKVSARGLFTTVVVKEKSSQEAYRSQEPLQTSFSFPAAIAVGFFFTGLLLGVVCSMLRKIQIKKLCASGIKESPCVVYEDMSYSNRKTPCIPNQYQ
Method: COS-1 cells were transfected with an expression vector encoding full length HuCD7 (human CD7), HuCD7-TR (human CD7 containing an internal deletion of the 36 amino acid tandem repeat), MuCD7 and vector only cDNA using DEAE-Dextran. However, any of a large number of expression vectors that are commercially available from numerous companies (e.g., Clontech Inc., Palo Alto, Calif.) could also be used to express the desired cDNAs. Two days post transfection the cells were assayed for the capacity to bind HuK12-Fc as previously described for other Fc fusion proteins (Lyman et al.,1993, Cell 75:1157-1167) with the following modifications. The binding media (RPMI 1640, 1%FBS, 0.02% NaAzide, 20 mM HEPES, pH7.2) was modified to include […] MnCl₂. In some experiments, the transfected cells were incubated with zero, 20 ug/ml or 2 mg/ml of Con A in BM/MM prior to binding with the Fc proteins. Following incubation for 30 minutes at room temperature and the continued presence of Con A, 1 ug/ml of either HuK12-Fc or MuK12-Fc was then added to the appropriate slides. Binding of the Fc protein was detected with [¹²⁵I] mouse anti-Human Fc antibody as previously described (Lyman, 1993). After binding the iodinated antibody, the cells were washed and then the radioactivity was quantitated by Storm Phosphorimager. […]

[2] = molecular target: T2, human CD7, full length, on cells (human, UniProt P09564 26-240); experiment: preliminary cell binding experiments on Jurkat and KG-1 cells
T2 construct: On transfected COS-1 or CV-1/EBNA cells, and endogenous on Jurkat, KG-1 and NK cells; also called HuCD7
T2 sequence: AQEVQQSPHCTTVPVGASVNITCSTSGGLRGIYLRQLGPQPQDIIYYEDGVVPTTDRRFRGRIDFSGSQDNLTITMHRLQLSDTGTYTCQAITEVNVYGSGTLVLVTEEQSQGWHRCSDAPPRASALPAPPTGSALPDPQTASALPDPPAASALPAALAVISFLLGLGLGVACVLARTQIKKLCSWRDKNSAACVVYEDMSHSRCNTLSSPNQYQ

[3] = molecular target: T3, human K12, full length, on transfected cells (human, UniProt Q8WVN6 29-248); experiment: Fc fusion binding to transfected cells, detected with 125I anti-human Fc
T3 construct: also called SECTM1
T3 sequence: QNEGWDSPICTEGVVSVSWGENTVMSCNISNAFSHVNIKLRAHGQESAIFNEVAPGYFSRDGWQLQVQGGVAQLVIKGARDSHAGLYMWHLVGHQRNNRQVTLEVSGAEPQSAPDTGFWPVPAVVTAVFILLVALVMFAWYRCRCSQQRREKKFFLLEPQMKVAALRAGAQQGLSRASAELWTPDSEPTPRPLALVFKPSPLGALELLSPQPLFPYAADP

[4] = molecular target: T2, human CD7, full length, on cells; experiment: Fc fusion binding to transfected cells (Example 5)
[5] = molecular target: T4, murine K12, full length, on transfected cells (mouse, UniProt Q9JL59 29-212); experiment: Fc fusion binding to transfected cells, detected with 125I anti-human Fc
T4 construct: also called mouse K12; murine homologue of K12
T4 sequence: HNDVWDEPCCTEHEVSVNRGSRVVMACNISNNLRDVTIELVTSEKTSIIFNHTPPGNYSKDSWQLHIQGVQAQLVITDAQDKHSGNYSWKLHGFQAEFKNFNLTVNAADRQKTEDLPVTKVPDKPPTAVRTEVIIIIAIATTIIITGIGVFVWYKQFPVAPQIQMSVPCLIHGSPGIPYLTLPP

binding result [3]: no binding
B2: murine CD7-Fc fusion protein (Fc fusion)
chain: QDVHQSPRLTIASEGDSVNITCSTRGHLEGILMKKIWPQAYNVIYLEDRQEPTVDRTFSGRINFSGSQKNLTITISSLQLADTGDYTCEAVRKVSARGLFTTVVVKEKSSQEAYRSQEPLQTSFSFP
notes: also called mouse CD7-Fc; not shown: Fc portion of the CD7-Fc fusion is not described

binding result [4]: no binding
B3: mouse K12-Fc fusion protein (extracellular domain of murine K12 fused to the Fc portion of human IgG1) (Fc fusion)
chain: HNDVWDEPCCTEHEVSVNRGSRVVMACNISNNLRDVTIELVTSEKTSIIFNHTPPGNYSKDSWQLHIQGVQAQLVITDAQDKHSGNYSWKLHGFQAEFKNFNLTVNAADRQKTEDLPVTKVPDKPPTAVRTE
notes: Exists as a dimer in solution; also called MuK12-Fc; not shown: Fc portion of human IgG1, as described in U.S. Pat. No. 5,457,035

Further lines, the binder ahead of its results:

B1: human K12-Fc fusion protein (extracellular domain of human K12 fused to the Fc portion of human IgG1) (Fc fusion)
chain: QNEGWDSPICTEGVVSVSWGENTVMSCNISNAFSHVNIKLRAHGQESAIFNEVAPGYFSRDGWQLQVQGGVAQLVIKGARDSHAGLYMWHLVGHQRNNRQVTLEVSGAEPQSAPDTG
notes: Exists as a dimer in solution; No linker or junction is described; also called HuK12-Fc; HuK12Fc; not shown: Fc portion of human IgG1, as described in U.S. Pat. No. 5,457,035
fold less binding than to full length HuCD7 [1]: ~4 fold
Ka [2]: ~1e+08 M⁻¹

B4: human CD7-Fc fusion protein (Fc fusion)
chain: AQEVQQSPHCTTVPVGASVNITCSTSGGLRGIYLRQLGPQPQDIIYYEDGVVPTTDRRFRGRIDFSGSQDNLTITMHRLQLSDTGTYTCQAITEVNVYGSGTLVLVTEEQSQGWHRCSDAPPRASALPAPPTGSALPDPQTASALPDPPAASALP
notes: not shown: Fc portion of the CD7-Fc fusion is not described
binding result [5]: no binding
